Source: WO2013078377A1

Key:
[1] = target: cynomolgus monkey CD98 as used in SPR, Octet and ELISA (cynomolgus monkey) (UniProt I7GH21); experiment: Biacore and Octet
[2] = target: human CD98 as used in ELISA, BIACORE and Octet assays (human) (UniProt P08195); experiment: Biacore and Octet
Sequence of UniProt P08195 (P08195 206-630 limits assumed, form in doubt): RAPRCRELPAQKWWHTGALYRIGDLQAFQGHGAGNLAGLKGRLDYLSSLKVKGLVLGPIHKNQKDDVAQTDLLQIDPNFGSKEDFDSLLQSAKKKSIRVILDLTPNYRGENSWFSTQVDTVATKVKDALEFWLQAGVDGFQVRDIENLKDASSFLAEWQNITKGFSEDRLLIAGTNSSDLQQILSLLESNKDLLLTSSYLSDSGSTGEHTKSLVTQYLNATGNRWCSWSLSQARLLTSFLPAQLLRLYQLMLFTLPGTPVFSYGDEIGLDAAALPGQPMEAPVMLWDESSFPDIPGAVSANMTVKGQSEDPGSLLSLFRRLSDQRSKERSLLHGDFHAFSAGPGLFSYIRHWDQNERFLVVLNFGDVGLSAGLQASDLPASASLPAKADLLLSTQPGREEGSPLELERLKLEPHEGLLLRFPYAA

- Kd [1]: 8 to 14 nM
- Kd [2]: 2 to 6 nM
Substance: humanized anti-CD98 monoclonal antibody IGN523
